Assay: soluble on expression in E. coli; label from the status in PepcDB or PDB records

Sequence | soluble on expression in E. coli
MTGTLAPEAMPLLSVRKLTKLFGNFAACNGIDLDIAPGEIHALLGENGAGKSTLVKMLFGVLSPTEGDIIWQGQPVSVGSPSEARRLGIGMVFQHFSLFEALTVAENIALSLDPKISLKEIAREAEQLSRAYGLPLDPNAHVADLSVGERQRIEIVRALLQNPRLIILDEPTSVLTPQEADKLFETLAKLKAEGRSVLYISHRLEEVQRICDRATVLRHGKVTGACDPRKETPASLARMMVGSDVASVSRATGEALGAPQIEVMGLSVAPRTPFAVALKSISMNVRAGEVLAIAGVAGNGQGELFDALSGEYPVYNNDAIHLRGKPVGRLGINGRRLMGAGFVPEERHGHAAVPGMSLSDNLLLARSRSDRKAFLTGGFLRIVRGSTIKAAARRISETMDVRKSGADPLAGSLSGGNLQKFIVGRELDRQPSVLVVNQPTWGVDAGAASRIRQALVDLAKAGSAVIVISQDLDEIFEVATNIAVISDGMLSEAHPVEEMTLEKIGLLMGGIHTSQSGAAQHAHLEHHHHHH | not soluble
MGSDKIHHHHHHMKAVRVHILGSGGREHAIGWAFAKQGYEVHFYPGNAGTKRDGTNHPYEGEKTLKAIPEEDIVIPGSEEFLVEGVSNWRSNVFGPVKEVARLEGSKVYAKRFMKKYGIRTARFEVAETPEELREKIKKFSPPYVIKADGLARGKGVLILDSKEETIEKGSKLIIGELIKGVKGPVVIDEFLAGNELSAMAVVNGRNFVILPFVRDYKRLMDGDRGPNTGGMGSWGPVEIPSDTIKKIEELFDKTLWGVEKEGYAYRGFLYLGLMLHDGDPYILEYNVRLGDPETEVIVTLNPEGFVNAVLEGYRGGKMEPVEPRGFAVDVVLAARGYPDAPEKGKEITLPEEGLIFFAGVAEKDGKLVTNGGRVLHCMGTGETKEEARRKAYELAEKVHFEGKTYRRDIAL | soluble
MSAEFNQLVAQFEQFQAKLHRVDQQFADLGQMQRELTELEVVATSADREVTVVAGPSGTIKDIRLTDQAMHRPPQALATALMATLRQAVAESARRQAGIVENALGDEMGLTEQVLETQAQLFGVTPQELRAMTEQAPGQPPAAPPPAPPAAGPGPQTPLAPPARPTPPRRPAPAEEADDFSQRGFLRDDDQQPRRPQADPGQKRDDRFLNLYDDEGR | not soluble
MHHHHHHLVPRGSMLDFEKPLFEIRNKIESLKESQDKNDVDLQEEIDMLEASLERETKKIYTNLKPWDRVQIARLQERPTTLDYIPYIFDSFMELHGDRNFRDDPAMIGGIGFLNGRAVTVIGQQRGKDTKDNIYRNFGMAHPEGYRKALRLMKQAEKFNRPIFTFIDTKGAYPGKAAEERGQSESIATNLIEMASLKVPVIAIVIGEGGSGGALGIGIANKVLMLENSTYSVISPEGAAALLWKDSNLAKIAAETMKITAHDIKQLGIIDDVISEPLGGAHKDIEQQALAIKSAFVAQLDSLESLSRDEIANDRFEKFRNIGSYIE | soluble
MLDYVPWIGNGYRYGNNHRGSNSSTSGVTTQGQSQNASSNEPAPTFSNVGVGLKANVNGTLSGSRTTPNQQGTPWLTLDQANLQLWTGAGWRNDKNGQSDENYTNFASAKGSTNQQGSTTGGSAGNPDSLKQDKADKSGDSVTVAEATSGDNLTNYTNLPPTSPPHPTDRTRCHSPTRTTPSGCSCSCAACWAASRCWSIRVGKMITVSLIPPTKNGLTPNLEHHHHHH | not soluble
MGSDKIHHHHHHMYWVSEDNVAGKPGKVLYVILPTIGCYRYRIGKPCYMCSYPAQAPRKTSQERIFGYFLEAIGKIKGKEGRFGIRIFTSGSFFDSSEVRRGTRIKIFQEIAKLDNVFEVVVETRSEIIREEWVRELVEIIEGKWFEVALGLETANDDIADISINKGSTFRDFVRASEIIHKAGAKVKTYLLFKPIFLSEGDAIEEMKRSIELAEPYTDTFSINMTNIQKGTLYEKIWERGEYRTPWLWSVVEVLKWAKRKFPGKRFLSDPVGAGSVRGPHNCGDSRDKPVERAIRKFSTTQDLRYLEVSGDCIEEWKYIVSQGLLDWQLIKSQVSPFSTE | not soluble
MSLADVILHAFNWPYATVEARAKQIADAGYRKVLVAPAYRSEGSAWWARYQPQDIRLIDNPLGDTAAFKKMVQALASNGVETYADIVFNHMANEAATRSDLNYPGGAVLSQYAANPGRYDSLRLFGTLQSNFLSASDFGPAQCISNYNDAYQVRNYRICGGGSDPGLPDLLGNDWVVQQQRAYLQALKSMGVTGFRVDAAKHMTFDHLNRVFDAGIRSGVYVFGEVITGGGTGNGDYDQFLAPYLQSTPHAAYDFPLFNAVRNAFAIGASMQQLVDPAASGQALPGNRAVTFAVTHDIPNNAGFRYAILDPVDETLAYAYLIGRNGGMPMLYTDNNESGDNRWVNAYLRDDLRRMIGFHNGVQGTDMQVLSSSSCHILFRRGSLGIVGINKCGNPVTTTVGMNNSVLYWNADYVDALGSGNVVRISSSSYTFTLPARGARMWRREGHHHHHH | not soluble
MGSDKIHHHHHHMTLGTKLSVDQEYLKSFSEKHQEPAWLKNLRLQALEQAEDLPMPKPDKTKITNWNFTNFAKHTVDNEPLSSLEDLTDEVKALIDIENEDKTLYVQRDQTPAHLSLSQELKDKGVIFTDILTAAREHSDLVEKYFMKDGVKVDEHKLTALHAALVNGGAFLYVPKNVQVETPVQAVYVHESNDTALFNHVLIVAEDHSSVTYVENYISTVNPKDAVFNIISEVITGDNASVTYGAVDNLSSGVTTYVNRRGAARGRDSKIEWALGLMNDGDTISENTTNLYGDGTYGDTKTVVVGRGEQTENFTTQIIHFGKASEGYILKHGVMKDSASSIFNGIGKIEHGASKANAEQESRVLMLSEKARGDANPILLIDEDDVTAGHAASVGRVDPIQLYYLMSRGIPKEEAERLVIYGFLAPVVNELPIEGVKKQLVSVIERKVK | not soluble
MERFDAVIIGAGAAGMFCAAQAGQAGSRVLLIDNGKKPGRKILMSGGGRCNFTNLYVEPAAYLSQNPHFCKSALARYTQWDFIDLVGRYGIAWHEKTLGQLFCDDSAQRIVDMLVAECDKGGVTMRLRSEVLSVERDESGFVLALNGETVTTQKLVIASGGLSMPGLGASPFGYKIAEQFGLKVLPTRAGLVPFTLHKPLLEQLQTLSGVSVPCVITARNGTVFRENLLFTHRGLSGPAVLQISSYWQPGELVSINLLPDLSLEDVLNEQRNAHPNQSLKNTLAMHLPKRLVECLQQLGLIPDVSLRQLNVRDQQTLVDTLTAWQVQPNGTEGYRTAEVTLGGVDTNELSSRTMEARRVPGLYFIGEVMDVTGWLGGYNFQWAWSSAWACAQDLIALKIN | soluble
GPGSMPKSKRATIVPLTKTRSKTREEKDELINKIRDALDDYTDVYTFELSNIRTNILQQIREERRNDSRLFLGNNKLLMIALGRDDSSSQRPNLHKLSKYLTGSCGLLFTNLPHQDVKEYFKGVSADVFARTGQVATCPLLLRTGPLAQFPHSMFDHLSRLGLPIKLDKGVIVLLRDTTVCEVGDTLTAEAAQLLKLFGIQSAEFKLELTAHWAKGVVKRMSKKKKEEEN | soluble
MSASVKESLQLQLLEMEMLFSMFPNQGEVKLEDVNALTNIKRYLEGTREALPPKIEFVITLQIEEPKVKIDLQVTMPHSYPYVALQLFGRSSELDRHQQLLLNKGLTSYIGTFDPGELCVCAAIQWLQDNSASYFLNRKLVYEPSTQAKPVKNTFLRMWIYSHHIYQQDLRKKILDVGKRLDVTGFCMTGKPGIICVEGFKEHCEEFWHTIRYPNWKHISCKHAESVETEGNGEDLRLFHSFEELLLEAHGDYGLRNDYHMNLGQFLEFLKKHKSEHVFQILFGIESKSSDSLEHHHHHH | soluble
MRVSDQVVQKLQGLIEQRHLKQGDRLPAERQLATSLGISRPSLREAIQQLNSLGILASRRGDGTYIQQLPETWSQQLIVEPISNLIEEDPEYRFDVQEARIVLEGGTAWYAALRSTEADRAKIHQCFDEIAYHQLQGDSAAAAVADANFHLAIAEASHNLVLIQMMRSLFDLLQYNVVLGRKKVYNHPVSADQLSEQHFQVMDAIDRQDAQAARDAVCGHIEFVIDHVRSLDEDEARQKRATRLHRIDQT | not soluble
MHYDAIVVGGGMVGAAAALGLAQRGFQVAVIEQEMPTPFDATSPPDLRISAIGYASVALLKELDAWPRVQQMRSAPYRRLETWEWANARVVFDAADIHLPELGFMVENRVLQLALWESLQEEERCRCYCPATPQGLQRTDDGWCLQLADGQKLTASLVIGADGANSQVRQWAGIGISGWQYRQSCMLIGVETSQPQQDVTWQQFTPSGPRAFLPLFDQWGSLVWYDSPQRIRQLQAMPLAQLDKEIAAAFPERLGTVKVISAGSFPLVRRHAQTYIKPGLVLLGDAAHTINPLAGQGVNLGYRDVEALLDVLINARNAGEQWASERVLRRYQCRRMPDNLMMQSGMDLFYSAFSNALPPLSFARNMALMVAQRAGVLKQRALKYAIGVLEHHHHHH | soluble
